Here are results for two molecules from doi:10.1101/2021.10.21.465316 (bioRxiv, 2021).

B1: dehydrodolichyl diphosphate synthase (DHDDS), residues 1-333 (enzyme)
chain: MSWIKEGELSLWERFCANIIKAGPMPKHIAFIMDGNRRYAKKCQVERQEGHSQGFNKLAETLRWCLNLGILEVTVYAFSIENFKRSKSEVDGLMDLARQKFSRLMEEKEKLQKHGVCIRVLGDLHLLPLDLQELIAQAVQATKNYNKCFLNVCFAYTSRHEISNAVREMAWGVEQGLLDPSDISESLLDKCLYTNRSPHPDILIRTSGEVRLSDFLLWQTSHSCLVFQPVLWPEYTFWNLFEAILQFQMNHSVLQKARDMYAEERKRQQLERDQATVTEQLLREGLQASGDAQLRRTRLHKLSARREERVQGFLQALELKRADWLARLGTASA

Data set [1] concerns the molecule itself. In words: crystal structure.
Data set [2] concerns the target B1. In words: crystal structure.

Consider B1, for which, in data set [1], the binding result is “binds”.

B2: Nogo B-receptor (NgBR) pseudo cis-prenyltransferase domain, residues 73-293, lacking residues 167-175 (domain or fragment)
chain: RGGSCLAAAHHRMRWRADGRSLEKLPVHMGLVITEVEQEPSFSDIASLVVWCMAVGISYISVYDHQGIFKRNNSRLMDEILKQQQELLGLDCSKDKDDQVLNCHLAVKVLSPEDGKADIVRAAQDFCQLVAQKQKRPTDLDVDTLASLLSSNGCPDPDLVLKFGPVDSTLGFLPWHIRLTEIVSLPSHLNISYEDFFSALRQYAACEQRLGK
As to B2, the binding result in data set [2] was “binds”.
